The series is described as follows: soluble on expression in E. coli; label from the status in PepcDB or PDB records.
For “MDAKETSATDLKRPREEDDNGGAATMETENGDQKKEPACFSTVIPGWFSEMSPMWPGEAHSLKVEKVLFQGKSDYQDVIVFQSATYGKVLVLDGVIQLTERDECAYQEMITHLPLCSIPNPKKVLVIGGGDGGVLREVARHASIEQIDMCEIDKMVVDVSKQFFPDVAIGYEDPRVNLVIGDGVAFLKNAAEGSYDAVIVDSSDPIGPAKELFEKPFFQSVARALRPGGVVCTQAESLWLHMDIIEDIVSNCREIFKGSVNYAWTSVPTYPSGVIGFMLCSTEGPDVDFKHPLNPIDESSSKSNGPLKFYNAEIHSAAFCLPSFAKKVIESKAN”, the “soluble on expression in E. coli” value is “soluble”.

Consider “MGHHHHHHSHMPFKLFKKLTISSVVTSATVNWATLASRTVFILPKRVLPYLRSVARLTRVVIAMDRYGGLLGGFLRAVPPVQKPLSLTDGNKFREGIMSEVGKYVSTLVDPRNMMLDSFHHLKHNKSLQGSFLVHAGTVSDQEVCGTPMFCYKDGLSNPEIDRLLTPISLTRLTVPNNENSDVFRIGNIIYSEDSGLFDIIPTLRTRLMERNLHEGLVFVGPLIKNINSSFVNKITTAIKGDTVLNESLSHGLVLKLPVEQFMDFETTNTFHYTGRLPMTHRSYIYYALGYVITADGTQSLLQKFFRTPIEGPEFTRLVRDYFAGEIRNFFLGDNDFGQGNFLMFGAVCRCGYFPEDSLLTRTRVSIKGGGLSLIEIPDFTVSRGPWQFI”, for which the “soluble on expression in E. coli” value is recorded as “not soluble”.

As for “MLTRLAVEAAEQARLAAEVEAQRIAAETAEHARVVAEAEAKRVADEQALFAAEAEAHRITAEAAEQARMEAEAQAQRDADEHARVTAEAQALEAGKTLRLPEAGTPQLGAVAGVISVTAGSGLFLDATIQAAIEILAALVGTAVSSTTAVGIGTLLYSPSLGNGELPGRMLDLPARVLMPDLPDALNDVAATGGTVDMPYRIYGDQSKYSVVATQPEGGFSPKVPVRALILDPVANAYTFTTSDTPPITLTFPIAAPENSSTTTVAQPIETPAYTGITLEPIEVKAEPLPATSPLDIRDAIYVYPVNSGLPPVYVVFSSPYEGATTKGEHSGRMYDPDNAGGPTQNLDWTTASVTQNGIDLVKLHTGRFEPSDANAVMIDRLEKILRSELSMTDTDKRFYTHELRELERYRALGVADGVEGEVWNNAHTATLEDYKLKDSSESFYTPEAILEHHHHHH”, the “soluble on expression in E. coli” value is listed as “soluble”.

Turning to “AQKLSATSRILSSSRGPAPDDIADFFGTDRAAQHITLRRLRLGNGRPYAIDNGWYNSEFAPDLLENDVYNSVYSILDRVYGVPVTQAEQTVTAVAADEDTARLLDVTPGAPLLRILRQSLSGDKPVEWCVSLYRTDRYS”, the “soluble on expression in E. coli” value was “not soluble”.

For “MSLKIKLIAVDLDGTLLTSRKKVSPKTLATLKKAREKGILVVPLSGRPLPGVLKVFEPFKLDPADNFAICYNGGLVQRMDGEVLSVSPLTDENVEHMLALKQTGIFGPYFMDTKDFYVAPKGSSFGVGFLAKARNMGVKRMVPGQHYEFIKGEFVSLPSKIKKFRAGFSPATEQEFEISASGGQCLEFNTPGTSKGQALTTLLDLLNIQPEEAMVFGDNNNDLSDFQLPGVFKVAMGNAIDEIKAAADYVTASNNQDGIALAVEKFVDMEGHHHHHH”, the “soluble on expression in E. coli” value is “soluble”.

With “MTAEVTAADAEVLLAQPRGFCAGVDRAIDIVERALELHGAPIYVRHEIVHNRYVVEDLRGKGAVFIDELDQAPAGAIVVFSAHGVSQAVRGEAEARGLRVFDATCPLVTKVHIEVARMRAAGREIVMIGHKGHPEVEGTLGQAQGGMYLVETVEDVAALQVSDPGNLAYVTQTTLSVDDAAAVAGALKARFPGIVEPKKSDICYATQNRQDAVKLLAPECDLVLVVGSTNSSNSNRLREVAERKGVAAYLIDGAHAIDPAWLQGRRSIGITAGASAPEVLVQQVVERVRELGAVSVRTMPGLEESVAFPLPKGLSRKIAQTESLEAAALEHHHHHH”, the “soluble on expression in E. coli” value is “not soluble”.

Take “MGSDKIHHHHHHMTEITTLSQFLTTAKTQFQVYELGRRVQHIDMLAFHQIESLVTPYPYPIQGHAQFAVVFWNESQQHFIWFLKLPLDEQGLLSPAPRSQFIEMVLTALGQDPTQPLTDEQQDRLANNPFSFKPSQEKLSVFNALVRKQLGLSASIQYEFAMQYLSGQIAPSEWQHIGMQGLSDVCVRLGELDHEQHILASFDQAAIEVQIALCQCLEHLQLTEAIAMKIFSKFITAPNEYQAYYLRALASQTELSQQALLHLQQTDRLDANALISIAGRNWPILKQALSRSIYLEALALQPQAFFNQIFADIVAIPNLRNHLLGELRNPNRSVQLSQAIGGLFKAASK”: the “soluble on expression in E. coli” value is recorded as “not soluble”.

On to “MSWIYDAHIHLSDPEYKSDIDMILNYMDLLKIKACCVSMDIETSNETMALYEKSKNVLPFIGIHPEMAQKSSEPVYELIEKNNEIISGIGEIGLDRTYINSEDEWEIQKDVFSKQLSLAEKFNKPVSIHSRKTLSDIFEILPSYKIPGILLHWFDGNKSQLKTAMENEYFVSYGPLLVYANDKQVLLSKTDPSRLLVETDGPVRFSHCFEYKTTEIMFVPSVLFCASKILHTSYENLLTQIEDNSKKFLGI”, for which the “soluble on expression in E. coli” value is given as “soluble”.

Take “MSLAHKAKLKIIPLGGLNEIGKNMTVFEYGNDIIVVDCGLAFPDDEMLGIDLVIPDITYLLKNREKVKAIVLTHGHEDHIGALPYVLKQLNVPIYGTRLTIGLVEYKLKEHGLLRDSKLITVKPRETVEIGQFKVEFIRTSHSIADSAALAIHTPVGTVFHSGDFKIDFTPIDGEVPDLHRFAQLGEKGVLVMLCDSTNIERPGYTMSERTVGETFDNLFRKAEQRIIVATFASNIHRVQQIINSAQKYGRKVAISGRSMVNVVNVAMELGYLTVPEGLLIDLDEANKLPHNKVVIITTGSQGEPMSALTRMASSEHKKVEIVPGDTVIISASPIPGNERLISRVINQLFKKGANVIYEALADIHVSGHACQEEIKLLHTLIKPKFFIPVHGEYRHLVQHAKLAESLGMPPENIFVVDNGTVLEFTKEGHHHHHH”: the “soluble on expression in E. coli” value is given as “soluble”.

Take “DGTADKTKGEVSNDKVSTDEKHVVSLDPNDQSKGKGVVIDNVANGDISATSTDAINGSQLYAVAKGVTNLAGQVNNLEGKVNKVGKRADAGTASALAASQLPQATMPGKSMVAIAGSSYQGQNGLAIGVSRISDNGKVIIRLSGTTNSQGKTGVAAGVGYQW”: the “soluble on expression in E. coli” value was “soluble”.

Regarding “AHHHHHHGSEKPRFKGHLKLLILKLLEENPLHGYGIMTRLEETFGIKVSPGAIYPILSSLRKSGLIEVAGEGKREKKLHKITEKGREYLRKHEDEVKEALEIANKLKEFSELGGKEVAQVLREVVENIDKLSEEQKAALAREFSNFVKRIKLILLGGEQYGGNNSGEPR”, the “soluble on expression in E. coli” value is reported as “soluble”.

As to “MSLNELDCLETASIKIDPFTLELSRSLSTAVGDIEQRRGHVVCVDINGTVGIGEATPLPGWTERYPDCQDALRSVSTDSTSTSTSTSTSTSASEITPDTRSAAHHGIELACVDAMARHHDSSLARFLSTDTPATSIPVNATIGDCDSEQTYKKAESAVEDGYTTIKLKVGARDIESDCNRVIAARSAVGEDITLRVDANGAWNRTAAERFLETARTVDIAYIEQPLPASDLDGHALLRGRGVDIAVDESMNRTSPEQIFAADAADIIVCKPMALGGPKQTLAVARKAEAVDIDTVVTTTIDGVIARMGAVHIAAALPGSGSNARACGLATGSMLADDLTANPVSISDGEISVPTGPGLAGGALRSCCNREGHHHHHH”, the “soluble on expression in E. coli” value is “soluble”.

“MTTFIQLHLLTAYPAANLNRDDTGAPKTVVLGGATRLRISSQSLKRAWRTSELFEQALAGHIGIRTGRIAREAAQILVDSGIDAKKAVEYVKNIANCFGKVKEDKKPKDELTNAETEQLVHISPAEFEAVKALARRLAEEKRPATEEEAELLRHDRMAVDIAMFGRMLAKKTDFNVEAACQVAHAFGVSETIIEDDFFTAVDDLRQASAEDAGAGHLGETGFGSALFYTYICIDKDLLVKNLNDNEELANKTLRAFTEAALKVSPTGKQNSFASRAYASWALAEKGTDQPRSLAAAFYEPINGTDQLNVAVKRITSLHKNMNKVYGQRTDTASFDVMNQQGSMEDVLDFICA”: the “soluble on expression in E. coli” value was “not soluble”.

As for “MFKVDRYFDLTAPIYPYMPVWPSNPPVELKPIVTVPKDGYLAEIIEASTHTGTHIDAPAHMIEGGTTVDDLDLASLIGTGYCLKVLPDGHTIRSTHLAEKWQGIYNNSILLIETGWYKKRGYTREFQYDFPGLSEDAADFLIQKHVKAVGIDTLGIEPYENTDFRVHKKLLRSGIPIIEDLYGLDSLEEGRPYLIIALPLRLKGTSGSMARVVAAETELEHHHHHH”, the “soluble on expression in E. coli” value is “not soluble”.

For the origin of these results see the DeepSol protein solubility set.
